Assay results as given in patent US20230365658A1 (LAWRENCE LIVERMORE NATIONAL SECURITY, published 2023).
Numbering of substitutions follows the chain as printed.

B1: mAb_RBD_2130_FAB_20211231_00199 (antibody, V domains shown)
VH: EVQLVESGGGLVKPGGSLRLSCAASGFTFRDVWMSWVRQAPGKGLEWVGRIKSKIDGGTTDYAAPVKGRFTISRDDSKNTLYLQMNSLKTEDTAVYYCTTAGSYYYDTVGPGLPEGKFDYWGQGTLVTVSS
VL: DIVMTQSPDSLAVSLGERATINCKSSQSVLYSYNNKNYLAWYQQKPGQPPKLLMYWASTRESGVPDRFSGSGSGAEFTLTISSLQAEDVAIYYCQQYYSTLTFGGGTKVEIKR
B2: v2130_upsample_20220121_00009 (antibody, V domains shown)
VH: B1 VH with Y106D, F118I
VL: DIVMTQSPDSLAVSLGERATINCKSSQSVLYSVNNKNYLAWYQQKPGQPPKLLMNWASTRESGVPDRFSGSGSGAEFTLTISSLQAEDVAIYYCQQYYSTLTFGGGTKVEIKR
B3: v2130_upsample_20220121_00298 (antibody, V domains shown)
VH: B1 VH with I55E, Y106H
VL: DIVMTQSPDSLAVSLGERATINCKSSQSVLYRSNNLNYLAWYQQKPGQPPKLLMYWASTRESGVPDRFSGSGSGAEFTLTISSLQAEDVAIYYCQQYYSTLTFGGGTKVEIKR
B4: mAb_v2130Vanderbilt_184_20220114_00112 (antibody, V domains shown)
VH: B1 VH with G112E
VL: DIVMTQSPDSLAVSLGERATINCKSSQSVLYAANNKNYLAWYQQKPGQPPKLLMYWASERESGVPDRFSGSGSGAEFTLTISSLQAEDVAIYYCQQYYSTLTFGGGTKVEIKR
B5: mAb_v2130Vanderbilt_184_20220114_00111 (antibody, V domains shown)
VH: B1 VH with G112E
VL: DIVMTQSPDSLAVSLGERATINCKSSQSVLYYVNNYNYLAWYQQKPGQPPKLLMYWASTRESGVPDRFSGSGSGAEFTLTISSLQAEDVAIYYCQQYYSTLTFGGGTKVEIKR
notes: also called LLNL198
B6: mAb_v2130JustStableLines_20220111_00002 (antibody, V domains shown)
VH: B1 VH with I55D
VL: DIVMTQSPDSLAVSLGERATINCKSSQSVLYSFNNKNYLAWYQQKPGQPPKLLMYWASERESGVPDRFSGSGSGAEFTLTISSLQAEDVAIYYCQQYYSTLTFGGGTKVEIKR
notes: also called LLNL010
B7: v2130_upsample_20220121_00354 (antibody, V domains shown)
VH: B1 VH with V109R, G112E
VL: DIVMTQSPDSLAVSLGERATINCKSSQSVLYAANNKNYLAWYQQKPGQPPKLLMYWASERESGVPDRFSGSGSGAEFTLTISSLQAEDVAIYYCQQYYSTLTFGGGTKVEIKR

Columns and labels:
[1] = biological target: T1, SARS-CoV-2 spike (S) glycoprotein, Omicron BA.2 (SARS-CoV-2, UniProt P0DTC2 14-1273); assay: cell-based or functional assay
[2] = biological target: T2, SARS-CoV-2 spike (S) glycoprotein, Omicron BA.1 (SARS-CoV-2, UniProt P0DTC2 14-1273); assay: cell-based or functional assay
[3] = biological target: T3, SARS-CoV-2 Spike-RBD, Delta (SARS-CoV-2, UniProt P0DTC2 319-541); assay: Gyros full-curve immunoassay, mAb titrated on RBD, relative binding (FI)
T3 construct: domain: RBD; also called Delta RBD

[4] = biological target: T1, SARS-CoV-2 spike (S) glycoprotein, …; assay: cell-based or functional assay; remark: listed apart in the source
[5] = biological target: T4, SARS-CoV-2 spike (S) glycoprotein, Omicron BA.4 (SARS-CoV-2, UniProt P0DTC2 14-1273); assay: cell-based or functional assay
[6] = biological target: SARS-CoV-2 spike (S) glycoprotein, Omicron BA.2.75 (SARS-CoV-2, UniProt P0DTC2 14-1273); assay: cell-based or functional assay
[7] = biological target: SARS-CoV-2 spike (S) glycoprotein, Omicron BA.2.12.1 (SARS-CoV-2, UniProt P0DTC2 14-1273); assay: cell-based or functional assay
[8] = biological target: SARS-CoV-2 spike (S) glycoprotein, Omicron BA.5 (SARS-CoV-2, UniProt P0DTC2 14-1273); assay: cell-based or functional assay
[9] = biological target: T5, SARS-CoV-2 spike (S) glycoprotein, D614G (SARS-CoV-2, UniProt P0DTC2 14-1273); assay: cell-based or functional assay
[10] = biological target: T2, SARS-CoV-2 spike (S) glycoprotein, …; assay: cell-based or functional assay; remark: listed apart in the source
[11] = biological target: T6, SARS-CoV-2 spike (S) glycoprotein, Omicron BA.1.1 (SARS-CoV-2, UniProt P0DTC2 14-1273); assay: cell-based or functional assay
[12] = biological target: T6, SARS-CoV-2 spike (S) glycoprotein, …; assay: cell-based or functional assay; remark: listed apart in the source
[13] = biological target: T4, SARS-CoV-2 spike (S) glycoprotein, …; assay: cell-based or functional assay; remark: listed apart in the source
[14] = biological target: SARS-CoV-2 spike (S) glycoprotein, Delta (B.1.617.2) (SARS-CoV-2, UniProt P0DTC2 14-1273); assay: cell-based or functional assay
[15] = biological target: SARS-CoV-2 spike (S) glycoprotein, Omicron BA.5.5 (SARS-CoV-2, UniProt P0DTC2 14-1273); assay: cell-based or functional assay
[16] = biological target: T2, SARS-CoV-2 spike (S) glycoprotein, …; assay: cell-based or functional assay; remark: listed apart in the source
[17] = biological target: T6, SARS-CoV-2 spike (S) glycoprotein, …; assay: cell-based or functional assay; remark: listed apart in the source
[18] = biological target: T1, SARS-CoV-2 spike (S) glycoprotein, …; assay: cell-based or functional assay; remark: listed apart in the source
[19] = biological target: T4, SARS-CoV-2 spike (S) glycoprotein, …; assay: cell-based or functional assay; remark: listed apart in the source
[20] = biological target: T5, SARS-CoV-2 spike (S) glycoprotein, D614G; assay: cell-based or functional assay; remark: listed apart in the source
[21] = biological target: T2, SARS-CoV-2 spike (S) glycoprotein, …; assay: cell-based or functional assay; remark: listed apart in the source
[22] = biological target: T6, SARS-CoV-2 spike (S) glycoprotein, …; assay: cell-based or functional assay; remark: listed apart in the source
[23] = biological target: T3, SARS-CoV-2 Spike-RBD, Delta; assay: Gyrolab immunoassay, IgG titrated on Spike-RBD, relative binding (FI)

| Binder | pseudovirus neutralization IC50 [1] | pseudovirus neutralization IC50 [2] | pseudovirus neutralization IC50 [12] | normalized pseudoneutralization IC50 [18] | normalized pseudoneutralization IC50 [19] | normalized pseudoneutralization IC50 [20] | normalized pseudoneutralization IC50 [21] | normalized pseudoneutralization IC50 [22] | EC50 (read off the curve) [3] | further results |
| --- | --- | --- | --- | --- | --- | --- | --- | --- | --- | --- |
| B1 | 1.11 ng/mL | 556 ng/mL |  |  |  |  |  |  |  |  |
| B2 |  |  |  |  |  |  |  |  |  | binding result [3]: no binding (tested: about 150 ug/ml) |
| B3 | 566 ng/mL | 626 ng/mL |  |  |  |  |  |  |  |  |
| B4 | 0.852 ng/mL | 1.14 ng/mL | 3.21 ng/mL | 0.985 ng/mL | 0.779 ng/mL | 4.08 ng/mL | 2.56 ng/mL | 6.25 ng/mL |  | authentic virus neutralization IC50 (FRNT, Vero-TMPRSS2) [4]: < 10 ng/mL; authentic virus neutralization IC50 (FRNT, Vero-TMPRSS2) [5]: < 10 ng/mL; fold improvement of pseudoviral neutralization over COV2-2130 [6]: 90 fold; pseudoviral neutralization IC50 [6]: 1.9 ng/mL; authentic virus neutralization IC50 (FRNT, Vero-TMPRSS2) [7]: < 10 ng/mL; authentic virus neutralization IC50 (FRNT, Vero-TMPRSS2) [8]: < 10 ng/mL; authentic virus neutralization IC50 (FRNT, Vero-TMPRSS2) [9]: < 10 ng/mL; authentic virus neutralization IC50 (FRNT, Vero-TMPRSS2) [10]: < 10 ng/mL; authentic virus neutralization IC50 (FRNT, Vero-TMPRSS2) [11]: < 10 ng/mL; authentic virus neutralization IC50 (FRNT) [13]: 7.47 ng/mL; authentic virus neutralization IC50 (FRNT) [14]: 0.0339 µg/mL; authentic virus neutralization IC50 (FRNT) [15]: 5.29 ng/mL; authentic virus neutralization IC50 (FRNT) [16]: 5.53 ng/mL; authentic virus neutralization IC50 (FRNT) [17]: 0.0392 µg/mL |
| B5 | 0.0392 ng/mL | 118 ng/mL | 603 ng/mL | 0.162 ng/mL | 34.3 ng/mL | 3.02 ng/mL | 32 ng/mL | 4030 ng/mL | ~1 µg/mL | EC50 (read off the curve) [23]: ~1 µg/mL |
| B6 | 1.15 ng/mL | 339 ng/mL |  | 1.47 ng/mL | 4.69 ng/mL | 4.92 ng/mL | 34.8 ng/mL | > 10000 ng/mL | ~2 µg/mL | EC50 (read off the curve) [23]: ~2 µg/mL |
| B7 | 0.515 ng/mL | 0.178 ng/mL | 0.475 ng/mL |  |  |  |  |  | ~0.4 µg/mL | authentic virus neutralization IC50 (FRNT) [13]: 3.04 ng/mL; authentic virus neutralization IC50 (FRNT) [14]: 0.00623 µg/mL; authentic virus neutralization IC50 (FRNT) [15]: 2.82 ng/mL; authentic virus neutralization IC50 (FRNT) [16]: 4.23 ng/mL; authentic virus neutralization IC50 (FRNT) [17]: 0.00965 µg/mL |
